Measured values as given in patent US20190218553, “VON WILLEBRAND FACTOR (VWF)-TARGETING AGENTS AND METHODS OF USING THE SAME” (DUKE UNIVERSITY, published 2019).

Legend:
[1] = biological target: T1, von Willebrand factor (VWF) (Homo sapiens, UniProt P04275 P04275:764-2813); experiment: filter; Bmax 74%; 2 mM CaCl2, 37 C; conditions: tags: factor VIII free human purified VWF, Haematologic Technologies Inc; label: 5'-32P
Protocol: (§1) Affinity constants (Kd values) were determined using double-filter nitrocellulose filter binding assays (Rusconi et al, Thromb. Haemost. $4:841-848 (2000)). All binding studies were performed in binding buffer F (20 mM HEPES, pH 7.4, 150 mM NaCl, 2 mM CaCl₂, and 0.01% BSA) at 37° C. Human purified VWF (factor VIII free) was purchased from Haematologic Technologies Inc. (Essex Junction, Vt.) and used in the double-filter nitrocellulose filter binding assay to determine the Kd of the aptamers. Briefly, RNA were end-labeled at the 5′ end with T4 polynucleotide kinase (New England Biolabs, Beverly, Mass.) and [γ³²P] ATP (Amersham Pharmacia Biotech, Piscataway, N.J.) (Fitzwater and Polisky, Methods Enzymol. 267:275-301 (1996)). End-labeled RNA was diluted in binding buffer F, heat denatured at 65° C. for 5 minutes, and subsequently equilibrated at 37° C. Direct binding was performed by incubating trace ³²P-RNA with varying concentrations of VWF protein in binding buffer F at 37° C. for 5 min. The fraction of the nucleic acid-protein complex which bound to the nitrocellulose membrane was quantified with a phosphorimager (Molecular Dynamics, Sunnyvale, Calif.). Non-specific binding of the radiolabeled nucleic acid was subtracted out of the binding such that only specific binding remained (Wong and Lohman, Proc. Natl. Acad. Sci. USA 90:5428-5432 (1993)).

[2] = biological target: T1, von Willebrand factor (VWF); experiment: filter; NB (no binding); 2 mM CaCl2, 37 C; conditions: tags: factor VIII free, Haematologic Technologies Inc; label: 5'-32P
Protocol: as §1

Binder ACGAACUGCCCUCGAUCGACGCACAGACGUACACG (ssRNA, 2'-F C9,C10,C11,C20,G21,C22; rest 2'-OMe; 3' idT) [T84 vrt7] has a Kd [1] of 182 nM.

B1: T12 (ssRNA)
RNA: GGGAGGAACUGCCCUCAGCUACUUUCAUGUUGCUGACGCACAGACGACUCGCUG
modifications: 2'-F C and U; 2'-OH A and G
B1: no binding [2].
